Data on two molecules can be found in article PMC12728192 (2025).

Ends that are not written are not given here.

Assay [1] concerns the target T1, Thermothelomyces thermophilus SAM complex (sorting and assembly machinery complex; Sam50:Sam35:Sam37, monomer) (Thermothelomyces thermophilus). The assay can be described thus: MST; replicate 3; detergent.
The target of assay [2] is T1, Thermothelomyces thermophilus SAM …. The assay can be described thus: MST; replicate 1; detergent.
For assay [3] the target is unchanged. The assay can be described thus: MST; replicate 6; detergent.

T1 sequence (chain, as listed by the source, chain 1 of 3): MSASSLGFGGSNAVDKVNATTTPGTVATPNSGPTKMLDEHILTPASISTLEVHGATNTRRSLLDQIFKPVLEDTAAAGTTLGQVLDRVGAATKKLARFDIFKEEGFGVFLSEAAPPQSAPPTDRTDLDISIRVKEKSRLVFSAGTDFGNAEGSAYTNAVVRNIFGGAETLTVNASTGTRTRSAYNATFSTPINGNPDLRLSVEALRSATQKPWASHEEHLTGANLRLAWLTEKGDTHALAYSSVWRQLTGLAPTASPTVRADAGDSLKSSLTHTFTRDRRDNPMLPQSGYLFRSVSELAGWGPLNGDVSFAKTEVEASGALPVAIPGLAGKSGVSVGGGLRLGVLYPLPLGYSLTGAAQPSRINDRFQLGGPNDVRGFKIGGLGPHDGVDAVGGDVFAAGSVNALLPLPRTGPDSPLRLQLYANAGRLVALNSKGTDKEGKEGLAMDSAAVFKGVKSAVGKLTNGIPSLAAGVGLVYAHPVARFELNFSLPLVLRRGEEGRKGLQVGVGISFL
T1 sequence (chain, as listed by the source, chain 2 of 3): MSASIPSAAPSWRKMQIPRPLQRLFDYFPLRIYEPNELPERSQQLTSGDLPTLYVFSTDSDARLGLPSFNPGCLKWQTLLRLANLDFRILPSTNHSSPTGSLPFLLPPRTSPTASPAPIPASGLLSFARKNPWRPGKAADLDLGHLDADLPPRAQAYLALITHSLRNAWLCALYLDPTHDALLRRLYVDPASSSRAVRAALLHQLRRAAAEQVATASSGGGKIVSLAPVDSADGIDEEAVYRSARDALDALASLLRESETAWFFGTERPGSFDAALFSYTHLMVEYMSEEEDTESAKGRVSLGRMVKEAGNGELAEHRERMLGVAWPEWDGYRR
T1 sequence (chain, as listed by the source, chain 3 of 3): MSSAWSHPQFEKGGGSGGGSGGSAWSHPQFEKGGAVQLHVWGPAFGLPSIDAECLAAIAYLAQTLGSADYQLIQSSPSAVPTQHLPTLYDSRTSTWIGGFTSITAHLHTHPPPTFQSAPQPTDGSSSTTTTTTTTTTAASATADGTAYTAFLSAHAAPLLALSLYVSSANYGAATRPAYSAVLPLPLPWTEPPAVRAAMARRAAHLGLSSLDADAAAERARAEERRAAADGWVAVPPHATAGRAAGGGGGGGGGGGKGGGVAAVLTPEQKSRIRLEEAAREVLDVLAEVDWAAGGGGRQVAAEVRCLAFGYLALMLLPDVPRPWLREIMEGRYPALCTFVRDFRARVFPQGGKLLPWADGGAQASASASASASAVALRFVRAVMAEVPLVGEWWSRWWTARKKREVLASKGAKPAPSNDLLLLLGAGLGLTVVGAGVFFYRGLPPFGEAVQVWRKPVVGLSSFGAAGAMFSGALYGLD

What is called Kd is the free concentration of one partner at which half of the binding sites on the other are occupied at equilibrium, for simple one-to-one binding. A low value points to tighter binding. For WNWSKSF [linear darobactin], the Kd in assay [1] turned out to be 491000 nM.
For WNWSKSF (also: backbone cyclizations, places not given here) [darobactin A], the Kd in assay [2] amounted to 149 nM; in assay [3], 166 nM.
